Test results: patent US20140274782A1, “AFFINITY REAGENTS AND METHODS FOR DETECTION, PURIFICATION, AND PROTEOMIC ANALYSIS OF METHYLATED PROTEINS” (The Board of Trustees of the Leland Stanford Junior …, priority 2013, published 2014)

Assays:
3×MBT domain of L3MBTL1 = test: Triple SILAC pull-down, 3xMBT/3xMBTD355N ratio (cytoplasmic, nuclear and chromatin fractions of 293T cells); type: binding, human; conditions: for 3xMBT/D355N UNC Heavy: experiment with UNC0638 in heavy SILAC media; for 3xMBT/D355N UNC Light: experiment with UNC0638 in light SILAC media;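 on all read-outs here: proteins quantified with MaxQuant, requiring at least two unique peptides and quantification in both label directions, normalized to the mean of proteins from a digested loading control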
G9a and GLP = target: T1, G9a and GLP (Homo sapiens, UniProt Q96KQ7+Q9H9B1); test: Triple SILAC pull-down after UNC0638 treatment of 293T cells, DMSO/UNC0638 ratio of protein captured by 3×MBT; type: cell-based; conditions: for Relative to UNC0638 UNC Heavy: UNC0638 in heavy SILAC media; for Relative to UNC0638 UNC Light: UNC0638 in light SILAC media; for Relative to UNC0638 Average: average of UNC Light and UNC Heavy experiments;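 on all read-outs here: mass spectrometry (Q-Exactive) SILAC quantitation, DMSO/UNC0638 ratio computed after subtracting 3×MBTD355N mutant pull-down background, only proteins with at least twofold 3×MBT over mutant signal considered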
T1 construct: endogenous in cells; host or cells: HEK 293T
T1 sequence (Q96KQ7 2-1210 limits assumed): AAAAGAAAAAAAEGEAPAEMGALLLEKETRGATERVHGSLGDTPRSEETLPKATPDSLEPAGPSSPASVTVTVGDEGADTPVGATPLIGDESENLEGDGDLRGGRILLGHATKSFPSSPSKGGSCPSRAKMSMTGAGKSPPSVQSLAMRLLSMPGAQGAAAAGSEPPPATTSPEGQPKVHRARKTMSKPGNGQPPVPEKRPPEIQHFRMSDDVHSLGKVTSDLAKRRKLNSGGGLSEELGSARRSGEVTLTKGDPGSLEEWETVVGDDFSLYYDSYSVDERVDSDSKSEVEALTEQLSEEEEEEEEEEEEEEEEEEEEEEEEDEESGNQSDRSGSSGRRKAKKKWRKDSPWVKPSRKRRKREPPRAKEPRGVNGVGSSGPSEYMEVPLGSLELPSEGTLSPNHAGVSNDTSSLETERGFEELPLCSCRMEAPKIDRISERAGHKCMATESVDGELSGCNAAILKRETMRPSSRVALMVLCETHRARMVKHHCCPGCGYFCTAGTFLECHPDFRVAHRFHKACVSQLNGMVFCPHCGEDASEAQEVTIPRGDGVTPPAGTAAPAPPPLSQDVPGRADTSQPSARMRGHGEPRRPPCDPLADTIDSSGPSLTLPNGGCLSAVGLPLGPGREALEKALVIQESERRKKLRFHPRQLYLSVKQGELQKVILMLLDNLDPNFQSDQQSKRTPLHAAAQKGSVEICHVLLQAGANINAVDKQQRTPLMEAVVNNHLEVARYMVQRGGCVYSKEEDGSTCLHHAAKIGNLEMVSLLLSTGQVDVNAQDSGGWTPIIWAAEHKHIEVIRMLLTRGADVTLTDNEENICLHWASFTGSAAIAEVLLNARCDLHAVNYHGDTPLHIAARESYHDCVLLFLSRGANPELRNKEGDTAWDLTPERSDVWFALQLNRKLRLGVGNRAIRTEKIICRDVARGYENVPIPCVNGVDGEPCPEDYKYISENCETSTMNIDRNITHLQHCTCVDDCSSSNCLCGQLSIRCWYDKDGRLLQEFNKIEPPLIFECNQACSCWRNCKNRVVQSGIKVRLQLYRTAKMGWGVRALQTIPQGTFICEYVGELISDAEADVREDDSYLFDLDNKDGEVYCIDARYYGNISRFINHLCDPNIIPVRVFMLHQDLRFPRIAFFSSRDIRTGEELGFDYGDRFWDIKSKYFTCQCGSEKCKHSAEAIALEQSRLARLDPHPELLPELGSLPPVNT
T1 sequence (Q9H9B1 2-1298 limits assumed): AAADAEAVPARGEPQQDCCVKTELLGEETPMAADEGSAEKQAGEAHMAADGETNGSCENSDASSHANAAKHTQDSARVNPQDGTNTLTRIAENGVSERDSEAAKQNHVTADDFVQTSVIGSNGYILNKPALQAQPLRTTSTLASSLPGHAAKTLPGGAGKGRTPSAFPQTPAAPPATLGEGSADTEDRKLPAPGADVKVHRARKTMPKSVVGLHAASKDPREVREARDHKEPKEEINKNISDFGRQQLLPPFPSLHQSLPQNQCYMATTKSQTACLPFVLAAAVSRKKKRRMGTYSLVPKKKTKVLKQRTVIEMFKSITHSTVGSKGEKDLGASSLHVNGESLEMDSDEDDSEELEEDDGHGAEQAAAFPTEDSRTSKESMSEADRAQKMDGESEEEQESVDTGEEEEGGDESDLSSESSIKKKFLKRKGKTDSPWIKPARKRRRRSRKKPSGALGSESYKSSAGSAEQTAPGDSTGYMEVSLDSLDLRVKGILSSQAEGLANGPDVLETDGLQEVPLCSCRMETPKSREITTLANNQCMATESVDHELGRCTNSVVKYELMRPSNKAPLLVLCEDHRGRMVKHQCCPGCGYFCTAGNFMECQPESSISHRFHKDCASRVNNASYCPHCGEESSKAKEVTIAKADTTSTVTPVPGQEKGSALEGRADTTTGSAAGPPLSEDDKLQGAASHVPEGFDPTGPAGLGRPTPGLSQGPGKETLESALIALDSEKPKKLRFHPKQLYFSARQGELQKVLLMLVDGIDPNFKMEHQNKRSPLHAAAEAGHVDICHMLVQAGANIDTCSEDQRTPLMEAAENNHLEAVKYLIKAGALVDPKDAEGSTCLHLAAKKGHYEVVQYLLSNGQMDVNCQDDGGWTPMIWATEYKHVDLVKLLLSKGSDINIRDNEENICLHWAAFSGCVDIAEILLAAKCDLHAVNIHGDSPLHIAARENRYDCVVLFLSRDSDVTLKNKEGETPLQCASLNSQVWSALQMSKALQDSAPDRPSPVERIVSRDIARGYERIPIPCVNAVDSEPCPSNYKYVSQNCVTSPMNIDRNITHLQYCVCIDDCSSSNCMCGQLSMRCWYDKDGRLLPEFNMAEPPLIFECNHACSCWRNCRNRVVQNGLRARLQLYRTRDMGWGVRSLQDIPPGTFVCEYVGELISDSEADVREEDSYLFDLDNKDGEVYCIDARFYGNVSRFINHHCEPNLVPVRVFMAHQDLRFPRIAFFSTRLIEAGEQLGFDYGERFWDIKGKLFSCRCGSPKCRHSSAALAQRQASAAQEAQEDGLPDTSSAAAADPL

[1] = SILAC ratio 3xMBT vs 3xMBTD355N pull-down, 293T cells, all values in log base 2
[2] = SILAC ratio DMSO relative to UNC0638, pull-down with 3xMBT, all values in log base 2
[3] = SILAC ratio, pull-down 3xMBT vs 3xMBTD355N
[4] = SILAC ratio DMSO/UNC0638 of protein pulled down with 3xMBT

Row | Substance | 3xMBT/D355N UNC Heavy (3×MBT domain of L3MBTL1; [1]) [log base 2] | 3xMBT/D355N UNC Light (3×MBT domain of L3MBTL1; [1]) [log base 2] | Relative to UNC0638 UNC Heavy (G9a and GLP; [2]) [log base 2] | Relative to UNC0638 UNC Light (G9a and GLP; [2]) [log base 2] | Relative to UNC0638 Average (G9a and GLP; all values in log base 2) [log base 2] | 3xMBT/D355N UNC Heavy (3×MBT domain of L3MBTL1; [3]) [log base 2] | 3xMBT/D355N UNC Light (3×MBT domain of L3MBTL1; [3]) [log base 2] | Relative to UNC0638 UNC Heavy (G9a and GLP; [4]) [log base 2] | Relative to UNC0638 UNC Light (G9a and GLP; [4]) [log base 2] | Relative to UNC0638 Average (G9a and GLP) [log base 2] | Protein Ratios 3xMBT/D355N (3×MBT domain of L3MBTL1; SILAC ratio, pull-down by 3xMBT vs 3xMBTD355N, 293T cells) | Protein Ratios DMSO/UNC0638 (G9a and GLP; SILAC ratio of protein captured by 3xMBT, 293T cells treated 24 hours with UNC0638 at 2.5 μM or DMSO) | Candidate G9a/GLP target (G9a and GLP; reduced association with 3xMBT after UNC0638 treatment)
1 | SNRNP70 | 3.26 | 3.57 | 0.22 | −0.01 | 0.11 |  |  |  |  |  |  |  | 
2 | RFC4 |  |  |  |  |  | 1.95 | 1.80 | 0.32 | 0.26 | 0.29 |  |  | 
3 | THOC2 |  |  |  |  |  | 2.50 | 2.01 | 0.64 | −0.05 | 0.30 |  |  | 
4 | DNM2 |  |  |  |  |  | 0.05 | 0.57 |  | 0.54 | 0.54 |  |  | 
5 | TRIM25 |  |  |  |  |  | 1.88 | 0.76 | 0.05 | 0.46 | 0.25 |  |  | 
6 | GTF3C1 |  |  |  |  |  | 0.63 | 2.08 | 1.93 | −0.06 | 0.93 |  |  | 
7 | BUB3 |  |  |  |  |  | 2.75 | 3.26 | 0.15 | 0.14 | 0.15 |  |  | 
8 | EFTUD2 |  |  |  |  |  | 1.98 | 2.07 | 0.36 | 0.33 | 0.34 |  |  | 
9 | PCBP1 |  |  |  |  |  | 2.16 | 2.49 | 0.11 | 0.19 | 0.15 |  |  | 
10 | GAPDH | 1.86 | 1.59 | 0.14 | −0.24 | −0.05 |  |  |  |  |  |  |  | 
11 | EIF4G1 |  |  |  |  |  | 3.18 | 3.31 | 0.07 | 0.25 | 0.16 |  |  | 
12 | GRB2 | 3.13 | 1.36 | 0.36 | −0.45 | −0.05 |  |  |  |  |  |  |  | 
13 | MCM6 |  |  |  |  |  | 2.48 | 2.53 | 0.10 | 0.26 | 0.18 |  |  | 
14 | GSK3B |  |  |  |  |  | 1.95 | 2.25 | 0.41 | 0.03 | 0.22 |  |  | 
15 | GRWD1 |  |  |  |  |  | 2.87 | 2.55 | 0.24 | 0.09 | 0.17 |  |  | 
16 | NPM1 |  |  |  |  |  | 1.24 | 1.27 | 0.24 | 0.11 | 0.17 |  |  | 
17 | HNRNPU |  |  |  |  |  | 2.16 | 2.39 | 0.22 | 0.28 | 0.25 |  |  | 
18 | DNA-dependent protein kinase catalytic subunit |  |  |  |  |  |  |  |  |  |  | 4.5 | 1.5 | 
19 | SNRNP200 |  |  |  |  |  | 2.08 | 3.14 | 0.19 | 0.26 | 0.22 |  |  | 
20 | CLTC |  |  |  |  |  | 2.19 | 2.98 | 0.24 | 0.65 | 0.44 |  |  | ✓
21 | NONO |  |  |  |  |  | 3.18 | 3.75 | 0.17 | 0.16 | 0.17 |  |  | 
22 | HIST1H1C |  |  |  |  |  | 5.16 | 4.61 | 0.18 | 0.15 | 0.17 |  |  | 
23 | RDBP | 2.37 | 2.82 | 0.32 | −0.12 | 0.10 |  |  |  |  |  |  |  | 
